Results as given in patent US20110300138A1 (published 2011).

How the values were obtained:
Assay in all cases: cell-based or functional assay
[1] = molecular target: TSHR with Ser281 mutated to Ala, expressed in CHO cells (human) (UniProt P16473)
[2] = molecular target: TSHR with Lys209 mutated to Ala (expressed in CHO cells) (human) (UniProt P16473)
[3] = molecular target: TSHR with Asp232 mutated to Ala expressed in CHO cells (human) (UniProt P16473)
[4] = molecular target: TSHR with Arg255 mutated to Asp expressed in CHO cells (human) (UniProt P16473)

Mutated/Wild type (%), TSH 0.1 ng/mL [1]: 117% | Mutated/Wild type (%), TSH 0.3 ng/mL [1]: 88% | Mutated/Wild type (%), TSH 1 ng/mL [1]: 85% | Mutated/Wild type (%), TSH 3 ng/mL [1]: 82% | Mutated/wild type (%) of cyclic AMP produced; test sample TSH (3 ng/mL); Experiment 1 [1]: 79% | Mutated/wild type (%) of cyclic AMP produced; test sample TSH (3 ng/mL); Experiment 2 [1]: 92% | Mutated/wild type (%) of cyclic AMP produced; test sample TSH (2) (3 ng/mL, run at the end of assay); Experiment 1 [1]: 57% | Mutated/wild type (%) of cyclic AMP produced; test sample TSH (2) (3 ng/mL, run at the end of assay); Experiment 2 [1]: 79% | Mutated/Wild type (%) of cyclic AMP produced, TSH 0.01 ng/mL [2]: 171% | Mutated/Wild type (%) of cyclic AMP produced, TSH 0.03 ng/mL [2]: 128% | Mutated/Wild type (%) of cyclic AMP produced, TSH 0.1 ng/mL [2]: 65% | Mutated/Wild type (%) of cyclic AMP produced, TSH 0.3 ng/mL [2]: 64% | Mutated/Wild type (%) of cyclic AMP produced, TSH 1 ng/mL [2]: 45% | Cyclic AMP produced, mutated TSHR, TSH 0.01 ng/mL (Experiment 1) [3]: 1.4 pmol/mL | Cyclic AMP produced, mutated TSHR, TSH 0.01 ng/mL (Experiment 2) [3]: 2.58 pmol/mL | Cyclic AMP produced, mutated TSHR, TSH 0.03 ng/mL (Experiment 1) [3]: 2.16 pmol/mL | Cyclic AMP produced, mutated TSHR, TSH 0.03 ng/mL (Experiment 2) [3]: 4.1 pmol/mL | Cyclic AMP produced, mutated TSHR, TSH 0.1 ng/mL (Experiment 1) [3]: 5.39 pmol/mL | Cyclic AMP produced, mutated TSHR, TSH 0.1 ng/mL (Experiment 2) [3]: 9.44 pmol/mL | Cyclic AMP produced, mutated TSHR, TSH 0.3 ng/mL (Experiment 1) [3]: 15.1 pmol/mL | Cyclic AMP produced, mutated TSHR, TSH 0.3 ng/mL (Experiment 2) [3]: 23.5 pmol/mL | Cyclic AMP produced, mutated TSHR, TSH 1 ng/mL (Experiment 1) [3]: 31.9 pmol/mL | Cyclic AMP produced, mutated TSHR, TSH 1 ng/mL (Experiment 2) [3]: 44.4 pmol/mL | Cyclic AMP produced, mutated TSHR, TSH 3 ng/mL (Experiment 1) [3]: 41 pmol/mL | Cyclic AMP produced, mutated TSHR, TSH 3 ng/mL (Experiment 2) [3]: 62 pmol/mL | Mutated/Wild type (%) of cyclic AMP produced, TSH 0.01 ng/mL, Experiment 1 [3]: 83% | Mutated/Wild type (%) of cyclic AMP produced, TSH 0.01 ng/mL, Experiment 2 [3]: 62% | Mutated/Wild type (%) of cyclic AMP produced, TSH 0.03 ng/mL, Experiment 1 [3]: 88% | Mutated/Wild type (%) of cyclic AMP produced, TSH 0.03 ng/mL, Experiment 2 [3]: 83% | Mutated/Wild type (%) of cyclic AMP produced, TSH 0.1 ng/mL, Experiment 1 [3]: 87% | Mutated/Wild type (%) of cyclic AMP produced, TSH 0.1 ng/mL, Experiment 2 [3]: 84% | Mutated/Wild type (%) of cyclic AMP produced, TSH 0.3 ng/mL, Experiment 1 [3]: 80% | Mutated/Wild type (%) of cyclic AMP produced, TSH 0.3 ng/mL, Experiment 2 [3]: 75% | Mutated/Wild type (%) of cyclic AMP produced, TSH 1 ng/mL, Experiment 1 [3]: 70% | Mutated/Wild type (%) of cyclic AMP produced, TSH 1 ng/mL, Experiment 2 [3]: 60% | Mutated/wild type (%) of cyclic AMP produced; TSH 3 ng/mL; Experiment 1 [3]: 66% | Mutated/wild type (%) of cyclic AMP produced; TSH 3 ng/mL; Experiment 2 [3]: 64% | Cyclic AMP produced (pmol/mL), TSH 0.01 ng/mL, Experiment 1 [4]: 2.59 pmol/mL | Cyclic AMP produced (pmol/mL), TSH 0.01 ng/mL, Experiment 2 [4]: 1.49 pmol/mL | Cyclic AMP produced (pmol/mL), TSH 0.01 ng/mL, Experiment 3 [4]: 6.46 pmol/mL | Cyclic AMP produced (pmol/mL), TSH 0.03 ng/mL, Experiment 1 [4]: 6.47 pmol/mL | Cyclic AMP produced (pmol/mL), TSH 0.03 ng/mL, Experiment 2 [4]: 2.81 pmol/mL | Cyclic AMP produced (pmol/mL), TSH 0.03 ng/mL, Experiment 3 [4]: 9.44 pmol/mL | Cyclic AMP produced (pmol/mL), TSH 0.1 ng/mL, Experiment 1 [4]: 19.2 pmol/mL | Cyclic AMP produced (pmol/mL), TSH 0.1 ng/mL, Experiment 2 [4]: 6.92 pmol/mL | Cyclic AMP produced (pmol/mL), TSH 0.1 ng/mL, Experiment 3 [4]: 22.7 pmol/mL | Cyclic AMP produced (pmol/mL), TSH 0.3 ng/mL, Experiment 1 [4]: 51.7 pmol/mL | Cyclic AMP produced (pmol/mL), TSH 0.3 ng/mL, Experiment 2 (duplicate determination) [4]: 21.2 pmol/mL | Cyclic AMP produced (pmol/mL), TSH 0.3 ng/mL, Experiment 3 [4]: 68.9 pmol/mL | Cyclic AMP produced (pmol/mL), TSH 1 ng/mL, Experiment 1 [4]: 68.6 pmol/mL | Cyclic AMP produced (pmol/mL), TSH 1 ng/mL, Experiment 2 [4]: 41.1 pmol/mL | Cyclic AMP produced (pmol/mL), TSH 1 ng/mL, Experiment 3 [4]: 154 pmol/mL | Cyclic AMP produced (pmol/mL), TSH 3 ng/mL, Experiment 1 [4]: 57.7 pmol/mL | Cyclic AMP produced (pmol/mL), TSH 3 ng/mL, Experiment 2 [4]: 52.4 pmol/mL | Cyclic AMP produced (pmol/mL), TSH 3 ng/mL, Experiment 3 [4]: 201 pmol/mL | Mutated/Wild type (%) of cyclic AMP produced, TSH 0.01 ng/mL, Experiment 1 [4]: 59% | Mutated/Wild type (%) of cyclic AMP produced, TSH 0.01 ng/mL, Experiment 2 [4]: 67% | Mutated/Wild type (%) of cyclic AMP produced, TSH 0.01 ng/mL, Experiment 3 [4]: 124% | Mutated/Wild type (%) of cyclic AMP produced, TSH 0.03 ng/mL, Experiment 1 [4]: 70% | Mutated/Wild type (%) of cyclic AMP produced, TSH 0.03 ng/mL, Experiment 2 [4]: 78% | Mutated/Wild type (%) of cyclic AMP produced, TSH 0.03 ng/mL, Experiment 3 [4]: 96% | Mutated/Wild type (%) of cyclic AMP produced, TSH 0.1 ng/mL, Experiment 1 [4]: 71% | Mutated/Wild type (%) of cyclic AMP produced, TSH 0.1 ng/mL, Experiment 2 [4]: 88% | Mutated/Wild type (%) of cyclic AMP produced, TSH 0.1 ng/mL, Experiment 3 [4]: 91% | Mutated/Wild type (%) of cyclic AMP produced, TSH 0.3 ng/mL, Experiment 1 [4]: 123% | Mutated/Wild type (%) of cyclic AMP produced, TSH 0.3 ng/mL, Experiment 2 [4]: 78% | Mutated/Wild type (%) of cyclic AMP produced, TSH 0.3 ng/mL, Experiment 3 [4]: 75% | Mutated/Wild type (%) of cyclic AMP produced, TSH 1 ng/mL, Experiment 1 [4]: 114% | Mutated/Wild type (%) of cyclic AMP produced, TSH 1 ng/mL, Experiment 2 [4]: 76% | Mutated/Wild type (%) of cyclic AMP produced, TSH 1 ng/mL, Experiment 3 [4]: 80% | Mutated/wild type (%) of cyclic AMP produced; TSH 3 ng/mL; Experiment 1 [4]: 94% | Mutated/wild type (%) of cyclic AMP produced; TSH 3 ng/mL; Experiment 2 [4]: 90%
Substance: TSH (ligand)
